Source: article doi:10.1101/2024.07.30.605799 (bioRxiv, 2024)

B1: human CAD dihydroorotase (DHO) domain, wild type (domain or fragment, UniProt P27708 1456-1846, looked up)
chain: MTSQKLVRLPGLIDVHVHLREPGGTHKEDFASGTAAALAGGITMVCAMPNTRPPIIDAPALALAQKLAEAGARCDFALFLGASSENAGTLGTVAGSAAGLKLYLNETFSELRLDSVVQWMEHFETWPSHLPIVAHAEQQTVAAVLMVAQLTQRSVHICHVARKEEILLIKAAKARGLPVTCEVAPHHLFLSHDDLERLGPGKGEVRPELGSRQDVEALWENMAVIDCFASDHAPHTLEEKCGSRPPPGFPGLETMLPLLLTAVSEGRLSLDDLLQRLHHNPRRIFHLPPQEDTYVEVDLEHEWTIPSHMPFSKAHWTPFEGQKVKGTVRRVVLRGEVAYIDGQVLVPPGYGQDVRKWPQGAVPQLPPSAPATSEMTTTPERPRRGIPGLPD
modifications: carboxylated lysine K1556
B2: human CAD DHO domain bearing W1581R (domain or fragment, UniProt P27708 1456-1846, looked up)
chain: MTSQKLVRLPGLIDVHVHLREPGGTHKEDFASGTAAALAGGITMVCAMPNTRPPIIDAPALALAQKLAEAGARCDFALFLGASSENAGTLGTVAGSAAGLKLYLNETFSELRLDSVVQWMEHFETRPSHLPIVAHAEQQTVAAVLMVAQLTQRSVHICHVARKEEILLIKAAKARGLPVTCEVAPHHLFLSHDDLERLGPGKGEVRPELGSRQDVEALWENMAVIDCFASDHAPHTLEEKCGSRPPPGFPGLETMLPLLLTAVSEGRLSLDDLLQRLHHNPRRIFHLPPQEDTYVEVDLEHEWTIPSHMPFSKAHWTPFEGQKVKGTVRRVVLRGEVAYIDGQVLVPPGYGQDVRKWPQGAVPQLPPSAPATSEMTTTPERPRRGIPGLPD
B3: human CAD DHO domain bearing S1538A (domain or fragment, UniProt P27708 1456-1846, looked up)
chain: MTSQKLVRLPGLIDVHVHLREPGGTHKEDFASGTAAALAGGITMVCAMPNTRPPIIDAPALALAQKLAEAGARCDFALFLGAASENAGTLGTVAGSAAGLKLYLNETFSELRLDSVVQWMEHFETWPSHLPIVAHAEQQTVAAVLMVAQLTQRSVHICHVARKEEILLIKAAKARGLPVTCEVAPHHLFLSHDDLERLGPGKGEVRPELGSRQDVEALWENMAVIDCFASDHAPHTLEEKCGSRPPPGFPGLETMLPLLLTAVSEGRLSLDDLLQRLHHNPRRIFHLPPQEDTYVEVDLEHEWTIPSHMPFSKAHWTPFEGQKVKGTVRRVVLRGEVAYIDGQVLVPPGYGQDVRKWPQGAVPQLPPSAPATSEMTTTPERPRRGIPGLPD
B4: human CAD DHO domain bearing S1538L (domain or fragment, UniProt P27708 1456-1846, looked up)
chain: MTSQKLVRLPGLIDVHVHLREPGGTHKEDFASGTAAALAGGITMVCAMPNTRPPIIDAPALALAQKLAEAGARCDFALFLGALSENAGTLGTVAGSAAGLKLYLNETFSELRLDSVVQWMEHFETWPSHLPIVAHAEQQTVAAVLMVAQLTQRSVHICHVARKEEILLIKAAKARGLPVTCEVAPHHLFLSHDDLERLGPGKGEVRPELGSRQDVEALWENMAVIDCFASDHAPHTLEEKCGSRPPPGFPGLETMLPLLLTAVSEGRLSLDDLLQRLHHNPRRIFHLPPQEDTYVEVDLEHEWTIPSHMPFSKAHWTPFEGQKVKGTVRRVVLRGEVAYIDGQVLVPPGYGQDVRKWPQGAVPQLPPSAPATSEMTTTPERPRRGIPGLPD
modifications: carboxylated lysine K1556
B5: human CAD DHO domain bearing H1687R (domain or fragment, UniProt P27708 1456-1846, looked up)
chain: MTSQKLVRLPGLIDVHVHLREPGGTHKEDFASGTAAALAGGITMVCAMPNTRPPIIDAPALALAQKLAEAGARCDFALFLGASSENAGTLGTVAGSAAGLKLYLNETFSELRLDSVVQWMEHFETWPSHLPIVAHAEQQTVAAVLMVAQLTQRSVHICHVARKEEILLIKAAKARGLPVTCEVAPHHLFLSHDDLERLGPGKGEVRPELGSRQDVEALWENMAVIDCFASDRAPHTLEEKCGSRPPPGFPGLETMLPLLLTAVSEGRLSLDDLLQRLHHNPRRIFHLPPQEDTYVEVDLEHEWTIPSHMPFSKAHWTPFEGQKVKGTVRRVVLRGEVAYIDGQVLVPPGYGQDVRKWPQGAVPQLPPSAPATSEMTTTPERPRRGIPGLPD
B6: human CAD ATC domain bearing P2186S (domain or fragment, UniProt P27708 1917-2225, looked up)
chain: LLHSLVGQHILSVQQFTKDQMSHLFNVAHTLRMMVQKERSLDILKGKVMASMFYEVSTRTSSSFAAAMARLGGAVLSFSEATSSVQKGESLADSVQTMSCYADVVVLRHPQPGAVELAAKHCRRPVINAGDGVGEHPTQALLDIFTIREELGTVNGMTITMVGDLKHGRTVHSLACLLTQYRVSLRYVAPPSLRMPPTVRAFVASRGTKQEEFESIEEALPDTDVLYMTRIQKERFGSTQEYEACFGQFILTPHIMTRAKKKMVVMHPMSRVNEISVEVDSDPRAAYFRQAENGMYIRMALLATVLGRF

Biological target: the molecule itself
Test: SEC
For B1, the “stoichiometry N” value was 2. With B2 the “stoichiometry N” value was 2. B3 was tested, and the “stoichiometry N” value was 2. For B4, the “stoichiometry N” value was 2. With B5 the “stoichiometry N” value was 2.

Biological target: the molecule itself
Test: SEC
Remark: another data set of the same source
With B6 the “stoichiometry N” value was 3.
